# Experimental data reported in patent publication US20070248609A1.
# Target: T1, Activin A (endogenous, mouse, released after LPS) (mouse) (UniProt Q04998)
# T1 sequence (looked up): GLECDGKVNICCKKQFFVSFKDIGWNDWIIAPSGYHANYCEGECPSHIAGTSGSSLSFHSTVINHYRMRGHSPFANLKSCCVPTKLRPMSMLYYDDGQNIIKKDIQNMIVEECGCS
# Assay: cell-based or functional assay
substance,measurement,value
Recombinant human follistatin-288 (from UniProt P19883 30-317),"IL-6 peak concentration in mice given 1 µg rhfollistatin-288 before LPS, against LPS alone",2 fold
same,IL-6 release in mice given 0.5 µg follistatin before LPS (LPS alone ≈20000 pg/ml),30000 pg/mL
same,"IL-6 release in mice given 0.5 µg follistatin before LPS, against LPS alone",50%
same,IL-6 release in mice given 1 µg follistatin before LPS (LPS alone ≈20000 pg/ml),50000 pg/mL
same,"IL-6 release in mice given 1 µg follistatin before LPS, against LPS alone",250%
same,IL-6 release in mice given 2 µg follistatin before LPS (LPS alone ≈20000 pg/ml),20000 pg/mL
same,TNFα release in plasma of mice given 1 µg rhfollistatin-288 30 min before LPS (% suppression),50
